Results as given in article PMC5727412.

Biological target: AcrE1 with a C-terminal 6×His tag (Pseudomonas phage JBD5)
Test: SEC; purified AcrE1 CHis; single peak; elution volume compared with a standard curve to estimate the native molecular mass

Substance: AcrE1 with a C-terminal 6×His tag (natural protein)
- stoichiometry N: 2
